# Test system: 4T1 breast carcinoma cells
# Experiment: 4T1 breast carcinoma spontaneous metastasis, orthotopic syngeneic Balb/c model
# Type: in vivo, mouse
# Experimental: 4T1 mouse breast carcinoma (spontaneous metastasis). Luciferase labeled 4T1 breast carcinoma cells (1×10^5/Balb/c mouse) are injected directly into the third mammary fat pad and treatment of mice (PBS control vs. mAb A54 500 μg/mouse, 3 times/week began 3 days after 4T1 cell inoculation. Mice were randomized into two groups of 6 mice, 4 days postinoculation (Day 0). On day 15 of the study the mammary fat pad including the primary tumor was excised on all mice while under 2% Isoflurane anaesthetic. Mice were treated with mAb A54 as described above and IVIS bioluminescent imaging is performed 12 and 18 days after mastectomy. At termination, mice are sacrificed and the number of overt macrometastases on the surface of the lungs was enumerated manually (Hammond et al., PLoS One 2012; 7(12):e52175).
# IVIS imaging. Bioluminescent imaging of luciferase-expressing tumors is performed with a highly sensitive, cooled charge coupled device (CCD) camera mounted in a light-tight specimen box (IVIS; Xenogen Corp., Waltham, MA). Imaging is performed in real time, is non-invasive and provides quantitative data. Briefly, mice are injected intraperitoneally with D-luciferin substrate at 150 mg/kg, anesthetized and placed onto a warmed stage inside the light-tight camera box, with continuous exposure to isoflurane (EZAnesthesia, Palmer, PA). Light emitted from the bioluminescent cells is detected by the IVIS camera system with images quantified for tumor burden using a log-scale color range set at 5×10^4 to 1×10^7 and measurement of total photon counts per second (PPS) using Living Image software (Xenogen).
# In subsequent studies, the effect of mAb A54 on cancer metastasis, the hallmark of heparanase activity, was investigated. A syngeneic breast carcinoma model was applied, which resembles the scenario in humans. Briefly, luciferase labeled 4T1 breast carcinoma cells (0.5×10^5) were orthotopically injected into the third mammary fat pad of Balb/c mice. Treatment of the mice (PBS control vs. mAb A54; 500 μg/mouse, 3 times/week) began 3 days after 4T1 cell inoculation. […] On day 15 of the study the mammary fat pad including the primary tumor was excised from all mice (under 2% Isoflurane anesthetic) and weighed. […] Mice were further treated with mAb A54 as described above and IVIS bioluminescent imaging was performed on day 35 (e.g., […]).
molecule,measurement,setting,value
"mAb A54: heparanase-neutralizing murine monoclonal antibody, IgG1-Kappa; VH SEQ ID NO: 7, VL SEQ ID NO: 8; binds HBD-II of heparanase (antibody, listed as Mus musculus, V domains shown) VH: QVQLQQSGAELAKPGASVRMSCKASGYTFTNYWMHWVKQRPGQGLEWIGYINPTTGYTEYNQKFKDKATLTADKSSSTAYMQLSSLTSEDSAVYYCARGGAGYDYDEDYAMDYWGQGTSVTVSS VL: DIVLTQSPASLAVSLGQRATISCRASESVEYFGTSYMNWYQQKPGQPPKLLIYLASILESGIPARFSGSGSGTDFTLNIHPVEEEDAATYYCQQSNEDPYTFGGGTKLEIK",luciferase signal generated by the primary tumors,"500 μg/mouse, 3 times/week, IVIS on day 12, vs PBS",no differences in the luciferase signal
same,lung metastases (IVIS signal after mastectomy),"500 μg/mouse, 3 times/week, IVIS on day 35, two out of 5 untreated mice developed lung metastases",hardly-detected signal
same,weight of excised primary tumors,"500 μg/mouse, 3 times/week, excised day 15, vs untreated",no difference in weights
same,inhibition of lung colonization,repeated experiment with similar results,almost complete inhibition of lung colonization
